From publication PMC5227094 come the findings set out here.

This assay deals with PSD95 (mouse (endogenous in forebrain)) (UniProt Q62108). Briefly: native gel or EMSA; BNP GluN1 immunoblot of forebrain deoxycholate extracts of WT and Glun2b^2A(CTR)/2A(CTR) mice; 1.5-NR band quantified relative to WT.
UniProt Q62108, sequence (Q62108 whole entry): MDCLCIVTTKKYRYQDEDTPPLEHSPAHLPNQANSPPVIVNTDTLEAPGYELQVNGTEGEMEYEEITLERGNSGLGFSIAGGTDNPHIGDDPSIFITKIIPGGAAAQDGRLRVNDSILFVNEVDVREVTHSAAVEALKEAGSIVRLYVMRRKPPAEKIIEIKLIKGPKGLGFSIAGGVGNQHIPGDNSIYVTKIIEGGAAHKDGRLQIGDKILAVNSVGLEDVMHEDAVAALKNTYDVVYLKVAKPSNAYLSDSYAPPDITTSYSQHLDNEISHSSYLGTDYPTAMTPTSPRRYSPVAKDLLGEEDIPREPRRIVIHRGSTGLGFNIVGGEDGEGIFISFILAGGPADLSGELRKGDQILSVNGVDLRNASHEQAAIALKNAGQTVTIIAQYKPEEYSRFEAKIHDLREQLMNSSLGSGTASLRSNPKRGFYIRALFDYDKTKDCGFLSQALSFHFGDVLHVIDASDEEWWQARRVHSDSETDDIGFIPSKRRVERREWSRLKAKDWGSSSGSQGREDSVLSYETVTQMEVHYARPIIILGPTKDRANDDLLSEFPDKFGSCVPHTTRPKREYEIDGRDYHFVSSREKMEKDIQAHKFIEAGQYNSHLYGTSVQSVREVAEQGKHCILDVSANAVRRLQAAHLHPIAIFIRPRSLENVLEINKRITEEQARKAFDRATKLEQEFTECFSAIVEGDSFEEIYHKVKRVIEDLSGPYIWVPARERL

Regarding “GluN2B with its C-terminal domain replaced by that of GluN2A (Glun2b^2A(CTR)/2A(CTR) knock-in)”, the 1.5-NR, % of WT is 6 % of WT.
